From US20090312277

Target: p21/WAF1 (UniProt P38936)
Sequence (P38936 whole entry): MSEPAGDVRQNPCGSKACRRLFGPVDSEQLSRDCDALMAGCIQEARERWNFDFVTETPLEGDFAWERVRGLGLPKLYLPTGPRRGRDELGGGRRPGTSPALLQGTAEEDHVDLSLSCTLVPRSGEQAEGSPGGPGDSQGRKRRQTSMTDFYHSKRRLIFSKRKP

Chain of cathepsin L (chain, as listed by the source): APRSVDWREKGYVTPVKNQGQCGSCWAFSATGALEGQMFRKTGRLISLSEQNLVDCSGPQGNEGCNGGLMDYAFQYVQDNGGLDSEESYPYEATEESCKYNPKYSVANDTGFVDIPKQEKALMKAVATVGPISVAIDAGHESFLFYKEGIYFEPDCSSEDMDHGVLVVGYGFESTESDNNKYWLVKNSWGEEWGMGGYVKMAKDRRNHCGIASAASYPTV

With cathepsin L the cleavage in vitro was “p2l/WAF1 is readily cleaved by cathepsin L in vitro”.
